Consider 125 sequences from the supplement of paper PMC9112550, “Optimization of the antimicrobial peptide Bac7 by deep mutational scanning” (BMC Biology, 2022).
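Also: peptides expressed intracellularly from a pBAD plasmid library in pooled LB shake-flask culture, induced with 0.3% L-arabinose, DNA abundance read by NGS, three biological replicates, DESeq2 with apeglm shrinkage.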

This data set deals with Escherichia coli TOP10. Description: shrunken log2 fold change of peptide-encoding DNA abundance (4.5 h post-induction vs induction); higher = less antimicrobial activity (less host growth inhibition). The conditions noted are these: time post-induction: 4.5 h; library: site-saturation at positions 5, 18, 19, 20.
As to RRIRYRPPRLPRPRPRPWFTPRP, the “shrunken log2 fold change” value is -0.165.
Regarding RRIRDRPPRLPRPRPRPDGQPRP, the “shrunken log2 fold change” value amounted to 0.705.
For the sequence RRIRMRPPRLPRPRPRPWKRPRP, the “shrunken log2 fold change” value is -0.0605.
For the sequence RRIRERPPRLPRPRPRPTSYPRP, the “shrunken log2 fold change” value is -0.288.
The same measure for RRIRVRPPRLPRPRPRPYPNPRP: 0.0262; for RRIRIRPPRLPRPRPRPDRCPRP: -0.163; for RRIRNRPPRLPRPRPRPVPMPRP: -0.0134.
Turning to RRIRCRPPRLPRPRPRPKYGPRP, the “shrunken log2 fold change” value was 0.0136.
Under RRIRCRPPRLPRPRPRPSQGPRP stands -0.137; under RRIRTRPPRLPRPRPRPAAVPRP, -0.0116.
As to RRIRDRPPRLPRPRPRPRPIPRP, the “shrunken log2 fold change” value came to 0.429.
On to RRIRGRPPRLPRPRPRPWREPRP, for which the “shrunken log2 fold change” value was 0.599.
With RRIRARPPRLPRPRPRPRPFPRP, the “shrunken log2 fold change” value came out at 0.562.
As for RRIRERPPRLPRPRPRPAEGPRP, the “shrunken log2 fold change” value was -0.179.
Turning to RRIRDRPPRLPRPRPRPWRPPRP, the “shrunken log2 fold change” value is 0.0967.
In the case of RRIRKRPPRLPRPRPRPNMEPRP, the “shrunken log2 fold change” value was -0.0503.
The same measure for RRIRSRPPRLPRPRPRPDLHPRP: -0.0732; for RRIRARPPRLPRPRPRPLGTPRP: 0.407.
Consider RRIRARPPRLPRPRPRPWVVPRP, for which the “shrunken log2 fold change” value came out at 0.0153.
The same measure for RRIRYRPPRLPRPRPRPHWYPRP: -1.02; for RRIRGRPPRLPRPRPRPGAEPRP: 1.68; for RRIRMRPPRLPRPRPRPMCSPRP: -0.00161.
Under RRIRVRPPRLPRPRPRPHPAPRP stands 0.296.
As to RRIRQRPPRLPRPRPRPEVKPRP, the “shrunken log2 fold change” value is -0.0062.
As for RRIRDRPPRLPRPRPRPFWHPRP, the “shrunken log2 fold change” value was -0.166.
The same measure for RRIRGRPPRLPRPRPRPVQPPRP: 0.95; for RRIRYRPPRLPRPRPRPFHPPRP: -0.146.
As to RRIRNRPPRLPRPRPRPPYGPRP, the “shrunken log2 fold change” value is -0.0471.
For the sequence RRIRIRPPRLPRPRPRPTGWPRP, the “shrunken log2 fold change” value came to 0.19.
Turning to RRIRRRPPRLPRPRPRPMWHPRP, the “shrunken log2 fold change” value was -0.03.
For the sequence RRIRWRPPRLPRPRPRPCDFPRP, the “shrunken log2 fold change” value is 0.123.
For RRIRKRPPRLPRPRPRPQIYPRP, the “shrunken log2 fold change” value was -0.159.
As for RRIRLRPPRLPRPRPRPTYHPRP, the “shrunken log2 fold change” value is -0.358.
In the case of RRIRIRPPRLPRPRPRPGREPRP, the “shrunken log2 fold change” value turned out to be 0.311.
Regarding RRIRDRPPRLPRPRPRPYHRPRP, the “shrunken log2 fold change” value came out at 0.0231.
Turning to RRIRPRPPRLPRPRPRPIAMPRP, the “shrunken log2 fold change” value was 0.0793.
As to RRIRQRPPRLPRPRPRPNFVPRP, the “shrunken log2 fold change” value was -0.0869.
Under RRIRQRPPRLPRPRPRPENSPRP stands -0.0723; under RRIRVRPPRLPRPRPRPKFKPRP, -0.2; under RRIRHRPPRLPRPRPRPRAKPRP, 1.14.
For the sequence RRIRMRPPRLPRPRPRPCNPPRP, the “shrunken log2 fold change” value is -0.0764.
RRIRMRPPRLPRPRPRPTARPRP: the “shrunken log2 fold change” value was determined as 1.22.
Under RRIRWRPPRLPRPRPRPSVEPRP stands 0.172; under RRIRHRPPRLPRPRPRPVTYPRP, -0.181; under RRIRGRPPRLPRPRPRPCCSPRP, 0.107.
Under RRIRYRPPRLPRPRPRPCSMPRP stands -0.0147.
In the case of RRIRWRPPRLPRPRPRPTTLPRP, the “shrunken log2 fold change” value is -0.0826.
For the sequence RRIRDRPPRLPRPRPRPWFQPRP, the “shrunken log2 fold change” value is -0.0572.
On to RRIRIRPPRLPRPRPRPTDLPRP, for which the “shrunken log2 fold change” value is -0.289.
Regarding RRIRIRPPRLPRPRPRPEDQPRP, the “shrunken log2 fold change” value is -0.000348.
Under RRIRNRPPRLPRPRPRPVCKPRP stands -0.0239; under RRIRFRPPRLPRPRPRPAHCPRP, 0.0781; under RRIRNRPPRLPRPRPRPEILPRP, -0.0178.
As for RRIRQRPPRLPRPRPRPTICPRP, the “shrunken log2 fold change” value was -0.114.
Regarding RRIRCRPPRLPRPRPRPVAYPRP, the “shrunken log2 fold change” value was -0.232.
The same measure for RRIRDRPPRLPRPRPRPGCNPRP: 0.0955; for RRIRTRPPRLPRPRPRPMHLPRP: -0.318; for RRIRERPPRLPRPRPRPGGWPRP: 0.492.
The same measure for RRIRERPPRLPRPRPRPRNKPRP: -0.121; for RRIRGRPPRLPRPRPRPRGNPRP: 0.995.
Take RRIRKRPPRLPRPRPRPIRTPRP: the “shrunken log2 fold change” value came to 0.416.
As to RRIRMRPPRLPRPRPRPRLDPRP, the “shrunken log2 fold change” value is 0.897.
Regarding RRIRVRPPRLPRPRPRPFDNPRP, the “shrunken log2 fold change” value is -0.359.
The same measure for RRIRMRPPRLPRPRPRPVPMPRP: 0.44.
Regarding RRIRHRPPRLPRPRPRPDKGPRP, the “shrunken log2 fold change” value is 0.0349.
With RRIRARPPRLPRPRPRPKRGPRP, the “shrunken log2 fold change” value came out at 0.565.
As for RRIRTRPPRLPRPRPRPFFNPRP, the “shrunken log2 fold change” value was -0.582.
Turning to RRIRNRPPRLPRPRPRPPGQPRP, the “shrunken log2 fold change” value was 0.0465.
Turning to RRIRKRPPRLPRPRPRPFPTPRP, the “shrunken log2 fold change” value was 2.75.
As to RRIRCRPPRLPRPRPRPLERPRP, the “shrunken log2 fold change” value is -0.199.
For the sequence RRIRNRPPRLPRPRPRPFWGPRP, the “shrunken log2 fold change” value was -0.157.
On to RRIRTRPPRLPRPRPRPELHPRP, for which the “shrunken log2 fold change” value was 0.396.
As for RRIRCRPPRLPRPRPRPMGYPRP, the “shrunken log2 fold change” value was -0.0984.
For the sequence RRIRCRPPRLPRPRPRPHQHPRP, the “shrunken log2 fold change” value is -0.302.
Under RRIRYRPPRLPRPRPRPWATPRP stands -0.379; under RRIRFRPPRLPRPRPRPSHNPRP, -0.782.
As for RRIRPRPPRLPRPRPRPKGRPRP, the “shrunken log2 fold change” value is -0.086.
As to RRIRCRPPRLPRPRPRPGDNPRP, the “shrunken log2 fold change” value was -0.125.
Turning to RRIRFRPPRLPRPRPRPYDKPRP, the “shrunken log2 fold change” value is -0.374.
Consider RRIRIRPPRLPRPRPRPCIQPRP, for which the “shrunken log2 fold change” value is -0.185.
In the case of RRIRIRPPRLPRPRPRPAGLPRP, the “shrunken log2 fold change” value is -0.0628.
For RRIRERPPRLPRPRPRPCPSPRP, the “shrunken log2 fold change” value was -0.115.
For the sequence RRIRPRPPRLPRPRPRPTMAPRP, the “shrunken log2 fold change” value worked out at 0.502.
For the sequence RRIRQRPPRLPRPRPRPHFHPRP, the “shrunken log2 fold change” value is -0.396.
As to RRIRYRPPRLPRPRPRPKAHPRP, the “shrunken log2 fold change” value is -0.376.
Under RRIRDRPPRLPRPRPRPESSPRP stands 0.27; under RRIRWRPPRLPRPRPRPINNPRP, -0.659; under RRIRFRPPRLPRPRPRPCRIPRP, -2.21.
Under RRIRSRPPRLPRPRPRPNPRPRP stands 0.0955; under RRIRQRPPRLPRPRPRPDNFPRP, 0.013.
In the case of RRIRWRPPRLPRPRPRPMIHPRP, the “shrunken log2 fold change” value is -0.0666.
On to RRIRWRPPRLPRPRPRPYTQPRP, for which the “shrunken log2 fold change” value worked out at 0.167.
As to RRIRSRPPRLPRPRPRPNMYPRP, the “shrunken log2 fold change” value is -0.635.
On to RRIRMRPPRLPRPRPRPFIKPRP, for which the “shrunken log2 fold change” value was -0.432.
For RRIRPRPPRLPRPRPRPVRNPRP, the “shrunken log2 fold change” value turned out to be 0.22.
The same measure for RRIRWRPPRLPRPRPRPMICPRP: -0.00725.
The same measure for RRIRHRPPRLPRPRPRPCVEPRP: 0.197.
Regarding RRIRNRPPRLPRPRPRPHAFPRP, the “shrunken log2 fold change” value is -0.0636.
As to RRIRLRPPRLPRPRPRPRNYPRP, the “shrunken log2 fold change” value is -0.0808.
On to RRIRGRPPRLPRPRPRPYFTPRP, for which the “shrunken log2 fold change” value was -0.123.
For the sequence RRIRGRPPRLPRPRPRPEPTPRP, the “shrunken log2 fold change” value was determined as 1.52.
With RRIRKRPPRLPRPRPRPYVHPRP, the “shrunken log2 fold change” value is -0.431.
On to RRIRCRPPRLPRPRPRPSMTPRP, for which the “shrunken log2 fold change” value was -0.178.
Under RRIRKRPPRLPRPRPRPQHYPRP stands -0.0715; under RRIRSRPPRLPRPRPRPQLCPRP, 0.0696; under RRIRWRPPRLPRPRPRPQQYPRP, -0.284.
Under RRIRHRPPRLPRPRPRPMRKPRP stands 0.0179.
On to RRIRVRPPRLPRPRPRPTHDPRP, for which the “shrunken log2 fold change” value came out at 0.143.
With RRIRTRPPRLPRPRPRPFWQPRP, the “shrunken log2 fold change” value came out at 0.0872.
Under RRIRGRPPRLPRPRPRPVYGPRP stands 0.0598; under RRIRYRPPRLPRPRPRPFMEPRP, -0.0943; under RRIRERPPRLPRPRPRPRPKPRP, 0.194.
The same measure for RRIRWRPPRLPRPRPRPLILPRP: -0.604.
The same measure for RRIRDRPPRLPRPRPRPEYSPRP: 0.0929; for RRIRQRPPRLPRPRPRPHYHPRP: -0.127.
As to RRIRQRPPRLPRPRPRPDNIPRP, the “shrunken log2 fold change” value was -0.00584.
Take RRIRSRPPRLPRPRPRPEGQPRP: the “shrunken log2 fold change” value amounted to 0.193.
Under RRIRERPPRLPRPRPRPNDLPRP stands -0.016; under RRIRLRPPRLPRPRPRPYQGPRP, -0.388; under RRIRYRPPRLPRPRPRPTYHPRP, -0.663.
Consider RRIRPRPPRLPRPRPRPIDAPRP, for which the “shrunken log2 fold change” value turned out to be 0.159.
The same measure for RRIRQRPPRLPRPRPRPRVLPRP: -0.0985; for RRIRFRPPRLPRPRPRPSNLPRP: -0.56; for RRIRLRPPRLPRPRPRPALHPRP: 0.135.
Regarding RRIRWRPPRLPRPRPRPKAFPRP, the “shrunken log2 fold change” value was -0.0585.
